Assay [1] concerns the target T1, PAI-1 (Homo sapiens, UniProt P05121).
T1 construct: gift of Pr; P. Declerck
The assay can be described thus: Co-immunoprecipitation with anti-PAI-1 antibody and Western blot, human PAI-1. In kind it is binding. Conditions: for complex with recombinant wild type PAI-1 (co-immunoprecipitation): 10 min at 37° C.; for complex with endogenous PAI-1 from HUVEC culture medium: conditioned medium of HUVEC; for interaction with PAI-1 in plasma samples: human plasma. The method, then:
(§1) The interaction was further confirmed by pull-down affinity assays. For the immunoprecipitation 4 μg of recombinant 16K hPRL or 14 hGH were mixed with 3 μg of recombinant wt PAI-1, 500 μl of conditioned media from HUVEC cells, 300 μl of human plasma or 100 μl of mouse plasma. The mixtures were incubated for 10 min at 37° C. 6 μg of mouse monoclonal antibody against PAI-1 (clone 33H1F7, recognize human and mouse PAI-1) was added to each tube and incubated overnight at 4° C. under rotation. For the experiments with mice expressing 16K hPRL, 300 μl of plasma from mice injected with Null-Ad or 16K-Ad adenovirus were collected 5 days after virus injection, and immunoprecipitation was performed as described above with same PAI-1 monoclonal antibody (33H1F7). Fifty microliters of protein A agarose was added to the mix and incubated overnight at 4° C. under rotation. After centrifugation for 1 min at 6000 rpm the supernatants were discarded and the pellets (containing the beads) were washed 5 times with PBS. After a new centrifugation, the beads were resuspended in 30 μl 1×β-mercaptoethanol loading buffer and boiled at 100° C. for 5 min, then left on ice for 5 min. The beads were centrifuged for 5 min at 4° C., then the supernatants were subjected to SDS-PAGE (12% acrylamide) for Western blot analysis.
(§2) For Western Blot Analysis cytoplasmic cell lysate, samples of different CoIP and mouse plasma were separated by SDS-PAGE (12% and 10%) and transferred to a polyvinylidene fluoride membrane (Milipore Corp., Bedford, Mass.). Blots were blocked overnight with 5% milk in Tris-buffered saline with 0.1% Tween 20 and probed for 1 h at RT with primary antibodies: rabbit polyclonal anti-hPRL (DAKO) or rabbit polyclonal anti hGH (home made). After three washes with Tris-buffered saline containing 0.1% Tween 20, antigen-antibody complexes were detected with peroxidase-conjugated goat anti-rabbit secondary antibody and an enhanced fluoro-chemiluminescent system (ECL-plus; Amersham Biosciences, Arlington Heights, Ill.).
(A western blot detects proteins with antibodies after separation by electrophoresis.)

Assay [2] deals with T2, PAI-1 (Mus musculus, UniProt P22777).
T2 construct: from tissue; host or cells: BalbC Njrj mice, in vivo (blood)
T2 sequence (P22777 23-402): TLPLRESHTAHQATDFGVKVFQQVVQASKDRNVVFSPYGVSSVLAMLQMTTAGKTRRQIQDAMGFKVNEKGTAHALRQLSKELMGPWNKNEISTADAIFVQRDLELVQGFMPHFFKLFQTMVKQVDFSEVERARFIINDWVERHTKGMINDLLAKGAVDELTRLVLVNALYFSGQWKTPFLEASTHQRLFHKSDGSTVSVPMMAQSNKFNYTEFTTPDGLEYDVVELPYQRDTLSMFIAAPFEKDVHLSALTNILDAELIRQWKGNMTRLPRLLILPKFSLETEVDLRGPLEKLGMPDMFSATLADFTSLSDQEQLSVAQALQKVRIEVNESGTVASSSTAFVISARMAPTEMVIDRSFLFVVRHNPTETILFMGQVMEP
The assay can be described thus: Co-immunoprecipitation with anti-PAI-1 antibody and Western blot, mouse PAI-1. In kind it is binding. The following applies: for interaction with PAI-1 in plasma samples: mouse plasma. The method, then:
as §1, §2

The next assay relates to endothelial cells. In words: Endothelial cell proliferation (BrdU incorporation). The following applies: for anti-proliferative function: down-regulation of PAI-1 expression by si-RNA; for anti-proliferation effect: recombinant wild type PAI-1 added to culture medium. The class given is cell-based, bovine. The procedure:
The cells were plated in 96-well culture plates at a density of 2,500 cells per well in 10% FCS/DMEM and allowed to adhere for 24 h. Then complete medium was replaced with SFM for 24 h. […] Proliferation was analysed 24 h later by measuring BrdU incorporation by means of the Cell Proliferation ELISA, BrdU (Colorimetric) (Roche, Clinical Laboratories, Indianapolis, Ind.). […] ID NO: 35); PAI-1 […] ID NO: 36).
In general terms: Dividing cells build labelled thymidine or BrdU into new DNA.

Assay [3] deals with T2, PAI-1. In words: Murine thromboembolism model (tPA/thromboplastin). The class given is in vivo. The following applies: recombinant 16K PRL 1 mg/kg i.v. 5 min before t-PA/thromboplastin; survival at 15 min; control group 73%; p=0.003. The method, then: BalbC Njrj Mice were used and anesthetised with ketamine/xylazine throughout the whole experiment. Recombinant 16K PRL and adenovirus vectors 16K-Ad and Null-Ad were produced as described above. The animal experiment protocol used was approved by the Institutional Ethics Committee of the University of Liege.
Recombinant 16K PRL (1 mg/kg) or POPRL 7-12 (10 mg/kg) were administrated via the vein to BalbC Njrj mice of approximately 15-18 g. Five minutes after the injection, a suboptimal concentration of t-PA (0.1 mg/kg) was injected immediately followed by i.v. injection of thromboplastin (3.3 μg/kg) to evoke thromboembolism. Mice were evaluated after 15 min for survival. For experiment with adenovirus vectors, mice were injected into the tail vein with 10^9 pfu of 16K hPRL adenovirus (16K-Ad) and their corresponding control (Null-Ad) 5 days before the injection a suboptimal concentration of t-PA (0.1 mg/kg) injected immediately followed by i.v. injection of thromboplastin (3.3 μg/kg).
The fisher test was used to determine the significance of the differences in the mortality assays.

T1 sequence (P05121 24-402): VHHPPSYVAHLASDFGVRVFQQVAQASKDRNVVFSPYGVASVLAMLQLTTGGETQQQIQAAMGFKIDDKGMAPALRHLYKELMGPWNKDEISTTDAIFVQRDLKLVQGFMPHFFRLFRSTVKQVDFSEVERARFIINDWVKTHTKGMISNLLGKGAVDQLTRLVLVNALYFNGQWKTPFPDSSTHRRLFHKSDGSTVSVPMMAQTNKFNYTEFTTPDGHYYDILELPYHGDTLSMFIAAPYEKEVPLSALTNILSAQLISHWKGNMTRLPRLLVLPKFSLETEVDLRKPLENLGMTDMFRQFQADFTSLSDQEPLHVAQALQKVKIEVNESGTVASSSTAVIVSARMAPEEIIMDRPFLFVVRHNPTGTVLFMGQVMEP

B1: 14K hGH: 14K N-terminal fragment of human growth hormone, recombinant, produced and purified from E. coli (protein)
chain: MFPTIPLSRLFDNAMLRAHRLHQLAFDTYQEFEEAYIPKEQKYSFLQNPQTSLSFSESIPTPSNREETQQKSNLELLRISLLLIQSWLEPVQFLRSVFANSLVYGASDSNVYDLLKDLEEGIQTLMGRLEDGSP
Turning to B1, in the assay with PAI-1 [1], the “complex with recombinant wild type PAI-1 (co-immunoprecipitation)” value worked out at 14K GH/PAI-1, the “complex with endogenous PAI-1 from HUVEC culture medium” value is recorded as “able to form a complex” and the “interaction with PAI-1 in plasma samples” value is “interaction was also demonstrated”. The “interaction with PAI-1 in plasma samples” value with PAI-1 [2] is listed as “interaction was also demonstrated”. Further, in the assay with endothelial cells, the anti-proliferative function result was “reduced significantly” and the anti-proliferation effect result was “reduced significantly”.

B2: 16K hPRL: 16K N-terminal human prolactin fragment, recombinant, produced and purified from E. coli (protein)
chain: LPICPGGAARCQVTLRDLFDRAVVLSHYIHNLSSEMFSEFDKRYTHGRGFITKAINSCHTSSLATPEDKEQAQQMNQKDFLSLIVSILRSWNEPLYHLVTEVRGMQEAPEAILSKAVEIEEQTKRLLEGMELIVSQVHP
One may read the mortality as the percentage killed. B2: the mortality with PAI-1 [3] was determined as 32%. Moreover, in the assay with PAI-1 [1], the “complex with recombinant wild type PAI-1 (co-immunoprecipitation)” value is “formation of 16K PRL/PAI-1”, the “complex with endogenous PAI-1 from HUVEC culture medium” value is on record as “able to form a complex” and the “interaction with PAI-1 in plasma samples” value is “interaction was also demonstrated”. Also, the “interaction with PAI-1 in plasma samples” value with PAI-1 [2] was “interaction was also demonstrated”. For the same molecule, the “complex with endogenous murine PAI-1 in circulation” value in the assay with PAI-1 [2] (plasma of wild type mice 5 days after 16K-Ad injection) is “complex formation”. In the assay on endothelial cells, the anti-proliferative function entry is reported as “reduced significantly” and the anti-proliferation effect result was “reduced significantly”.

The values are drawn from patent publication US20130035289A1, “PHARMACEUTICAL COMPOSITION FOR TREATMENT OF THROMBOSIS-RELATED DISEASES COMPRISING A FRAGMENT OF PROLACTIN (PRL)-GROWTH HORMONE (GH)-PLACENTAL LACTOGEN (PL)-FAMILY PROTEIN” (UNIVERSITE DE LIEGE, priority 2010, published 2013).
